Test in all cases: cell-based or functional assay
The target of assay [1] is spHT 133 C-terminal fragment fused to FRB or FKBP.
Assay [2] addresses spHT 145 C-terminal fragment fused to FRB or FKBP.
Assay [3] deals with spHT 80 C-terminal fragment fused to FRB or FKBP.
Another assay deals with [196-297]-FRB (UniProt P42345).
For assay [4], the target named is spHT 180 C-terminal fragment fused to FRB or FKBP.
The target of assay [5] is spHT 157 C-terminal fragment fused to FRB or FKBP.

“And” between values parts separate entries of the source, which are not always exact repeats. Equal entries are not always repeated.

Sequence of UniProt P42345 (P42345 other isoform, or with tags, fused parts or gaps limits assumed): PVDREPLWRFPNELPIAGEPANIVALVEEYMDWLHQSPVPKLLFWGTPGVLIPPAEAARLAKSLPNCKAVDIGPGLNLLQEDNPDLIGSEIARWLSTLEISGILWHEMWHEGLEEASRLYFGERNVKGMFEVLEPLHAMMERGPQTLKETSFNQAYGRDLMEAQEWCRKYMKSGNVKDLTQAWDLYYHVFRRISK

Regarding “spHT 133 N-terminal fragment fused to FRB or FKBP”, the fold fluorescence signal increase (JF646 ligand) in the presence of 50 nM rapamycin, E. coli lysates in assay [1] is above 2 fold. In the case of “spHT 145 N-terminal fragment fused to FRB or FKBP”, the fold fluorescence signal increase (JF646 ligand) in the presence of 50 nM rapamycin, E. coli lysates in assay [2] was above 2 fold. As to “spHT 80 N-terminal fragment fused to FRB or FKBP”, the fold fluorescence signal increase (JF646 ligand) in the presence of 50 nM rapamycin, E. coli lysates in assay [3] is above 2 fold. For “[1-195]-FKBP (from UniProt P62942 2-108)”, in assay [196-297]-FRB, the fold fluorescence signal increase (JF646 ligand) in the presence of 50 nM rapamycin, E. coli lysates was 4.7 fold and > 2 fold. “spHT 180 N-terminal fragment fused to FRB or FKBP”: the fold fluorescence signal increase (JF646 ligand) in the presence of 50 nM rapamycin, E. coli lysates in assay [4] was above 2 fold. Turning to “spHT 157 N-terminal fragment fused to FRB or FKBP”, the fold fluorescence signal increase (JF646 ligand) in the presence of 50 nM rapamycin, E. coli lysates in assay [5] was above 2 fold.

The values above are taken from patent publication US20240060059A1.
